Reference: US20110190477A1 (G2 INFLAMMATION, published 2011)
No end group written: not given here. *: point of attachment. Biotin = O=C1N[C@H]2[C@H](CS[C@H]2CCCCC(=O)*)N1

T1: human C5a receptor (human, UniProt P21730 1-350)
T1 chain: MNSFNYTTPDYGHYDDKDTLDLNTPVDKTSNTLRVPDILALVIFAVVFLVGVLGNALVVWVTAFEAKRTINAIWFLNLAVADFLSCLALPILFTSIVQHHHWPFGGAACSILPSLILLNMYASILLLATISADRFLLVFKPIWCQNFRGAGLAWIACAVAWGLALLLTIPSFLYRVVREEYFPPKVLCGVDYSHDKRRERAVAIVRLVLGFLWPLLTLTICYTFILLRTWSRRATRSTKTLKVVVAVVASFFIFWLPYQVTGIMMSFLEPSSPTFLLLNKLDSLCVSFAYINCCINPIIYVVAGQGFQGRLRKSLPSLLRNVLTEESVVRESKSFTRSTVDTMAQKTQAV

T2: peptide 12 (12 mer from the 2nd extracellular loop of human C5aR) (human)
T2 construct: worked out from 22 12 mers offset by one over 173-205; also called peptide no; 12
T2 peptide: Biotin-SGSGPKVLCGVDYSHD

T3: peptide 14 (12 mer from the 2nd extracellular loop of human C5aR) (human)
T3 construct: worked out from 22 12 mers offset by one over 173-205; also called peptide no; 14
T3 peptide: Biotin-SGSGVLCGVDYSHDKR

T4: peptide 18 (12 mer from the 2nd extracellular loop of human C5aR) (human)
T4 construct: worked out from 22 12 mers offset by one over 173-205; also called peptide no; 18
T4 peptide: Biotin-SGSGVDYSHDKRRERA

T5: peptide 11 (12 mer from the 2nd extracellular loop of human C5aR) (human)
T5 construct: worked out from 22 12 mers offset by one over 173-205; also called peptide no; 11
T5 peptide: Biotin-SGSGPPKVLCGVDYSH

T6: peptide 15 (12 mer from the 2nd extracellular loop of human C5aR) (human)
T6 construct: worked out from 22 12 mers offset by one over 173-205; also called peptide no; 15
T6 peptide: Biotin-SGSGLCGVDYSHDKRR

T7: peptide 22 (12 mer from the 2nd extracellular loop of human C5aR) (human)
T7 construct: worked out from 22 12 mers offset by one over 173-205; also called peptide no; 22
T7 peptide: Biotin-SGSGHDKRRERAVAIV

B1: humanized anti-C5aR antibody hAb-Q (antibody, human IgG4 S228P, kappa)
light: DVVMTQSPLSLPVTLGEPASISCRSSQSLVHSNGNTYLHWYLQKPGQSPQLLIYKVSNRFSGVPDRFSGSGSGTDFTLKISRVEAEDVGVYFCSQSTLVPLTFGQGTKLEIKRTVAAPSVFIFPPSDEQLKSGTASVVCLLNNFYPREAKVQWKVDNALQSGNSQESVTEQDSKDSTYSLSSTLTLSKADYEKHKVYACEVTHQGLSSPVTKSFNRGEC
heavy: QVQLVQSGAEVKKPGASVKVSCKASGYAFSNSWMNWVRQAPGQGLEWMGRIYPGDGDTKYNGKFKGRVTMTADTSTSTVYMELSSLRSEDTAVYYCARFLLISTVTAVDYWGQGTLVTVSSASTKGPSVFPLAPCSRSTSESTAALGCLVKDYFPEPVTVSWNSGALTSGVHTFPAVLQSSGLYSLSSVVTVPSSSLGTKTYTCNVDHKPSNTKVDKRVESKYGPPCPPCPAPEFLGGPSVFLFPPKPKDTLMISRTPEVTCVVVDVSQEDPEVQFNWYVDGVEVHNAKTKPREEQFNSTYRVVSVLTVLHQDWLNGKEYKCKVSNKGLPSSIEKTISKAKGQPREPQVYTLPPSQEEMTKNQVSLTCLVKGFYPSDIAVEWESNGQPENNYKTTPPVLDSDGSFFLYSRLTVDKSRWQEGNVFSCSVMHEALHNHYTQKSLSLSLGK
notes: IgG4 with the Ser228Pro mutation; also called antibody Q; anti-C5aR ab
B2: humanized anti-C5aR antibody hAb-J (antibody, human IgG4 S228P, kappa)
light: DVVMTQSPLSLPVTLGEPASISCRSSQSLVHSNGNTYLHWYLQKPGQSPQLLIYKVSNRFSGVPDRFSGSGSGTDFTLKISRVEAEDVGVYFCSQSTLVPLTFGQGTKLEIKTVAAPSVFIFPPSDEQLKSGTASVVCLLNNFYPREAKVQWKVDNALQSGNSQESVTEQDSKDSTYSLSSTLTLSKADYEKHKVYACEVTHQGLSSPVTKSFNRGEC
heavy: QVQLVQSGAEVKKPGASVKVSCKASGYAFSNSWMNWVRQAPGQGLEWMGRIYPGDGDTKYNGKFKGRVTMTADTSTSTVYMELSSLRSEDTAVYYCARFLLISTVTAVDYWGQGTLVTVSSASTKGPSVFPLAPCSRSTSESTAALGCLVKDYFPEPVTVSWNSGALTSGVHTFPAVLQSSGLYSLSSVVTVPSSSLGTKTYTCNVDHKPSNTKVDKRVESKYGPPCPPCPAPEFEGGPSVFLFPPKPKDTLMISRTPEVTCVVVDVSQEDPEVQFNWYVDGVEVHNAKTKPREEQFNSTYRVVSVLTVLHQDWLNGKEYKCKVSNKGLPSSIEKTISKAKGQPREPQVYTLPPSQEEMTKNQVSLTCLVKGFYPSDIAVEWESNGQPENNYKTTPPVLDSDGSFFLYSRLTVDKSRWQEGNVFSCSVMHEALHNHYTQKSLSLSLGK
notes: also called antibody J
B3: mouse anti-C5aR monoclonal antibody 7F3 (antibody, V domains shown)
VH: QVQLQQSGPELVKPGASVKISCKASGYAFSNSWMNWVKQRPGKGLEWIGRIYPGDGDTKYNGKFKGKATLTADKSSSTAYMQLSSLTSEDSAVYFCARFLLISTVTAVDYWGQGTTLTVSS
VL: DVVMTQSPLSLPVSLGNQASISCRSSQSLVHSNGNTYLHWYLQKPGQSPKLLIYKVSNRFSGVPDRFSGSGSGTDFSLKISRVEAEDLGVYFCSQSTLVPLTFGAGTKLELK
notes: Mouse monoclonal from hybridoma ECACC 00110609; also called m7F3; mouse 7F3

Key:
[1] = target: T1, human C5a receptor; assay: cell-based or functional assay
[2] = target: T2, peptide 12 (12 mer from the 2nd …); assay: peptide ELISA, biotin peptide on streptavidin plate
Source text: (§1) A set of 22 overlapping peptides (12 mers), each offset by 1 residue from the next, spanning the second extracellular loop (3rd extracellular domain) of human C5aR was synthesised (Mimotopes, Melbourne). Each peptide was made with a biotin group and 4-amino acid linker (SGSG) at its N-terminus. One peptide synthesised, no. 23, was a 33 mer, representing the full length of the 2nd extracellular loop of hC5aR (residues 173-205 from SEQ ID NO:37), also had biotin-SGSG at the N-terminus.
(§2) The experiment was conducted by binding the peptides to a 384-well streptavidin-coated plate then incubating the antibodies with the peptides and detecting bound antibody with an anti-mouse IgG conjugated to horse radish peroxidase (HRP) as follows. Each peptide was dissolved in 200 μl of 60% DMSO to a concentration of 10 mg/ml. Peptides were further diluted 1:1000 to a working strength of 10 μg/ml with PBS/Tween 20/azide solution (0.1% w/v sodium azide in PBS/0.05% Tween 20).
(§3) A 384 well streptavidin-coated plate (Nunc) was blocked with 20 μl of blocking buffer (1% w/v BSA in PBS) per well. The plate was washed 4 times with PBS/Tween20 buffer (0.1% v/v Tween 20 in PBS). 20 μl of diluted peptide solution was transferred into a well and the plate incubated for 1 hour at room temperature. After washing the plate 4 times (as above) 20 μl antibody (0.5, 1, 1.25, 2.5 or 5 μg/ml) was added to the well and the plate was incubated for 1 hour at 20° C. The plate was washed 4 times as above then 20 μlHRP-conjugated anti-mouse IgG (1:5000 dilution in PBS/Tween 20) was added to each well. After a 1 hour incubation at room temperature the plate was washed 3 times (as above) then twice with PBS to remove traces of Tween. The presence of peroxidase was detected by adding 20 μl of freshly prepared TMB Substrate reagent (BD Opt EIA) to each well and incubating at room temperature for 20 min. Finally the plate was read at 650 nm/450 nm.

[3] = target: T3, peptide 14 (12 mer from the 2nd …); assay: as above
Source text: as §1, §2, §3

[4] = target: T4, peptide 18 (12 mer from the 2nd …); assay: as above
Source text: as §1, §2, §3

[5] = target: T5, peptide 11 (12 mer from the 2nd …); assay: as above
Source text: as §1, §2, §3

[6] = target: T6, peptide 15 (12 mer from the 2nd …); assay: as above
Source text: as §1, §2, §3

[7] = target: T7, peptide 22 (12 mer from the 2nd …); assay: as above
Source text: as §1, §2, §3

[8] = target: T1, human C5a receptor; assay: 125I-C5a displacement, L1.2/hC5aR transfectants
Protocol: (§4) The ability of humanized Abs to inhibit ¹²⁵I-labelled C5a binding to L1.2 cells transfected with hC5aR gene or human neutrophils was tested as described below. Recombinant human C5a was obtained from Sigma Chemical Co. (St. Louis, Mo.). ¹²⁵I-Bolton-Hunter-labelled complement C5a was purchased from NEN-Dupont (Boston, Mass.), with a specific activity of 2200 Ci/mM. Briefly, L1.2/hC5aR stable transfectants were grown for several days prior to an experiment then treated overnight with 5 mM butyric acid to stimulate hC5aR expression prior to the binding assay. Human neutrophils were purified from venous blood collected from healthy volunteers. Neutrophils were separated from other leukocytes by percoll density centrifugation followed by a red blood cell lysis step. Both cell types were washed once in PBS and resuspended in binding buffer (50 mM Hepes, pH 7.5, 1 mM CaCl₂, 5 mM MgCl₂, 0.5% BSA) at a concentration of 1×10⁷/ml. Aliquots of 40 μl (4×10⁵ cells) were dispensed into 96 well microtitre plates, followed by the addition of cold competitor (antibody or human C5a). Cells and cold competitor were incubated for 15 min at room temperature before-radiolabelled C5a was added to a final concentration of 0.4 nM. The final reaction volume was 120 μl. After 60 min incubation at room temperature, the cells were washed three times with 150 μl of binding buffer containing 0.15 M NaCl. Cell pellets were then counted on a TopCount Scintillation Counter (Packard). Samples were assayed in triplicate at each of 6-8 concentrations. Each antibody was tested in at least 3 separate assays. The number of counts in each sample was expressed as a percentage of the maximum ¹²⁵I-C5a binding observed in wells with no added cold competitor after subtraction of background.
(§5) Results of this analysis (the displacement curves) for each of the humanized antibodies compared to the mouse antibody 7F3 in human neutrophils and L1.2/hC5aR transfectants are given in FIGS. 11 and 12 respectively. […] These values were obtained using Graphpad Prism software fitting the data to the non-linear equation for one site competition.

[9] = target: T1, human C5a receptor; assay: 125I-C5a displacement, human neutrophils
Protocol: as §4, §5

Binder	EC50 for inhibition of C5a-induced human neutrophil migration [1] [µg/mL]	IC50, C5a-induced migration of hC5aR/L1.2 cells [1] [µg/mL]	IC50, prevention of C5a-induced CD11b up-regulation on neutrophils in whole human blood (100 nM C5a) [1] [µg/mL]	IC50, prevention of C5a-induced loss of CD62L on neutrophils in whole human blood (100 nM C5a) [1] [µg/mL]	antibody concentration that completely inhibited hC5aR/L1.2 transfectant migration [1] [µg/mL]	binding result [2]	binding result [3]	binding result [4]	binding result [5]	binding result [6]	binding result [7]	EC50 [8] [nM]	EC50 [9] [nM]	blocking of human neutrophil migration towards C5a at 5 µg/ml antibody [1] [%]	antibody concentration that completely blocked migration of human neutrophils induced by 10 nM C5a [1] [µg/mL]
B1	0.03	0.7	~10.7	~5.4	5	no binding	no binding	no binding	no binding	no binding	no binding	0.86	3.5		
B2		0.6			5	no binding	no binding	no binding	no binding	no binding	no binding	0.93	4.11	82	
B3		0.5			5	no binding	no binding	no binding	no binding	no binding	no binding	0.51	0.54	97	10
